Experimental findings from US20220089698A1 (published 2022) are described below.

Some targets named below: HIV gp120 CAAN (HIV-1); HIV gp120 REJO (HIV-1); HIV gp120 Bal (HIV-1).
The target of a further test is T1, Cyno FcγRIIA (cynomolgus macaque, UniProt A0A140HDM9 28-216).
T1 construct: also called cynomolgus macaque FcγRIIA
T1 sequence: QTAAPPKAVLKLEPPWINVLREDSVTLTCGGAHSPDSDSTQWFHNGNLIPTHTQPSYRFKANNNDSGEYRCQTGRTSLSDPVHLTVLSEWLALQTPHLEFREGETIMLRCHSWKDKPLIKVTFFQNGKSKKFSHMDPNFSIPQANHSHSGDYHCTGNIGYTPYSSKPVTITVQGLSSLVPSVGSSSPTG
The experiment in a line: SPR (Biacore 4000), antibody amine coupled to CM4 chip, receptor as analyte, steady-state fit. (In general: SPR reads the build-up and loss of mass on a sensor chip optically.)

The next test addresses T2, Cyno FcγRIIB (cynomolgus macaque, UniProt A0A140HDN4 43-217).
T2 construct: also called cynomolgus macaque FcγRIIB
T2 sequence: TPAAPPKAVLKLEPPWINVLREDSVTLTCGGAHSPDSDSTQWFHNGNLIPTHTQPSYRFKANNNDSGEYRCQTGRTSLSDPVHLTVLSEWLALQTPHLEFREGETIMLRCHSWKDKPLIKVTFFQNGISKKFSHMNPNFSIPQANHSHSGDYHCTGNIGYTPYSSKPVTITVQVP
Described as above.

Method for Cyno FcγRIIA: (§1) The in vitro binding dissociation constants (KD) of selected antibodies described herein for human and cynomolgus macaque (cyno) Fc binding receptors (FcγRs, FcRn) were determined using the Biacore 4000 surface plasmon resonace (SPR) biosensor, and either C1 or CM4 sensor chips (GE Healthcare).
(§2) To determine cynomolgus macaque FcγRIIA, FcγRIIB, FcγRIII and FcγRI binding affinities each test antibody was amine coupled to a CM4 sensor chip at two densities (about 100 RU and about 800 RU). Cyno FcγRIIA and FcγRIIB were tested in a two-fold concentration series up to 1 μM. FcγRIII was tested in a two-fold concentration up to 500 nM. Cyno FcγRT was tested for binding using a two-step titration (3 nM and 30 nM). The response data for FcγRIIA, FcγRIIB, FcγRIII at steady-state were fit to a simple binding isotherm. Responses for FcγRI were fit to a simple kinetic model.
Method for Cyno FcγRIIB: as §1, §2

B1: Antibody A-1 (antibody, human IgG1, kappa)
heavy: QVQLLQSGAAVTKPGASVRVSCEASGYNIRDYFIHWWRQAPGQGLQWVGWINPKTGQPNNPRQFQGRVSLTRHASWDFDTFSFYMDLKALRSDDTAVYFCARQRSDYWDFDVWGSGTQVTVSSASTKGPSVFPLAPSSKSTSGGTAALGCLVKDYFPEPVTVSWNSGALTSGVHTFPAVLQSSGLYSLSSVVTVPSSSLGTQTYICNVNHKPSNTKVDKKVEPKSCDKTHTCPPCPAPELLAGPDVFLFPPKPKDTLMISRTPEVTCVVVDVSHEDPEVKFNWYVDGVEVHNAKTKPREEQYNSTYRVVSVLTVLHQDWLNGKEYKCKVSNKALPLPEEKTISKAKGQPREPQVYTLPPSREEMTKNQVSLTCLVKGFYPSDIAVEWESNGQPENNYKTTPPVLDSDGSFFLYSKLTVDKSRWQQGNVFSCSVLHEALHSHYTQKSLSLSPGK
light: DIQMTQSPSSLSASVGDTVTITCQANGYLNWYQQRRGKAPKLLIYDGSKLERGVPSRFSGRRWGQEYNLTINNLQPEDIATYFCQVYEFVVPGTRLDLKRTVAAPSVFIFPPSDEQLKSGTASVVCLLNNFYPREAKVQWKVDNALQSGNSQESVTEQDSKDSTYSLSSTLTLSKADYEKHKVYACEVTHQGLSSPVTKSFNRGEC
As for B1, the Kd with Cyno FcγRIIA was found to be 1100 nM; with Cyno FcγRIIB, 240 nM. Moreover, the half-maximal effective concentration (EC50) with HIV gp120 CAAN stood at 2.17 nM; with HIV gp120 REJO, 2.37 nM; with HIV gp120 Bal it was 0.06 nM.

B2: Antibody A (antibody, human IgG1, kappa)
heavy: not shown
light: DIQMTQSPSSLSASVGDTVTITCQANGYLNWYQQRRGKAPKLLIYDGSKLERGVPSRFSGRRWGQEYNLTINNLQPEDIATYFCQVYEFVVPGTRLDLKRTVAAPSVFIFPPSDEQLKSGTASVVCLLNNFYPREAKVQWKVDNALQSGNSQESVTEQDSKDSTYSLSSTLTLSKADYEKHKVYACEVTHQGLSSPVTKSFNRGEC
With B2, the Kd is 2000 nM in the test with Cyno FcγRIIA and 895 nM with Cyno FcγRIIB. Further, the results for the EC50 with HIV gp120 CAAN, in the test with HIV gp120 REJO and in the test with HIV gp120 Bal were 1.84 nM, 2.21 nM and 0.05 nM, respectively.

B3: Antibody 1.52.64-1 (antibody, human IgG1, kappa)
heavy: QVQLLQSGAAVTKPGASVRVSCEASGYNIRDYFIHWWRQAPGQGLQWVGWINPKTGQPNNPRQFQGRVSLTRHASFDFDTFSFYMDLKALRSDDTAVYFCARQRSDYWDFDVWGSGTQVTVSSASTKGPSVFPLAPSSKSTSGGTAALGCLVKDYFPEPVTVSWNSGALTSGVHTFPAVLQSSGLYSLSSVVTVPSSSLGTQTYICNVNHKPSNTKVDKKVEPKSCDKTHTCPPCPAPELLAGPDVFLFPPKPKDTLMISRTPEVTCVVVDVSHEDPEVKFNWYVDGVEVHNAKTKPREEQYNSTYRVVSVLTVLHQDWLNGKEYKCKVSNKALPLPEEKTISKAKGQPREPQVYTLPPSREEMTKNQVSLTCLVKGFYPSDIAVEWESNGQPENNYKTTPPVLDSDGSFFLYSKLTVDKSRWQQGNVFSCSVLHEALHSHYTQKSLSLSPGK
light: DIQMTQSPSSLSASVGDTATITCQANGYLNWYQQRRGKAPKLLIYDGSKLERGVPSRFSGRRWGQEYNLTINNLQPEDIATYFCQVYEFVVPGTRLDLKRTVAAPSVFIFPPSDEQLKSGTASVVCLLNNFYPREAKVQWKVDNALQSGNSQESVTEQDSKDSTYSLSSTLTLSKADYEKHKVYACEVTHQGLSSPVTKSFNRGEC
B3: the Kd with Cyno FcγRIIA was 1180 nM; with Cyno FcγRIIB, 280 nM. The EC50 turned out to be 3.79 nM with HIV gp120 CAAN, 4.02 nM with HIV gp120 REJO and 0.07 nM with HIV gp120 Bal.

As usually defined, the Kd is a measure of binding affinity in units of concentration. The low end stands for tighter binding, the high end for weaker binding. For orientation: EC50 means the concentration that produces a half-maximal response.
